Measurements: patent US10889826B2, “Methods and compositions for producing epidermal growth factor (EGF) in soybeans” (ARIZONA BOARD OF REGENTS ON BEHALF OF THE UNIVERSITY OF …, priority 2017, dated 2021)

What was measured:
Hela cell EGFR [1] = target: T1, Hela cell EGFR (Homo sapiens, UniProt P00533); experiment: EGF bioactivity in Hela cells by western blotting (pEGFR, total EGFR); format: cell-based; conditions: for overall EGF bioactivity: internalization, degradation and phosphorylation of EGFR: HeLa cells, compared with commercial rhEGF
T1 construct: soybean produced hEGF induces a rapid phosphorylation of Hela cell EGFR; endogenous in cells; host or cells: HeLa cells (American Tissue Culture Collection)
Experimental: Hela cells (obtained from American Tissue Culture Collection) were cultured in Minimum Essential Media (MEM) complemented with 10% Fetal Bovine Serum (FBS), 100 units/ml penicillin, and 100 μg/ml streptomycin. For western blotting assay, cells grown in 6-well plate were kept in serum free MEM media for 24 hours. […] Cells were lysed by directly adding 1×SDS sample buffer (50 mM Tris-HCl, pH 6.8, 10% glycerol, 2% SDS and 5% 13-ME) to the cells after washing 3 times with 1×PBS. EGF bio-activity was determined via EGFR phosphorylation and down-stream AKT phosphorylation. Total EGFR was also measured since EGFR is known to undergo internalization when stimulated with EGF. Antibodies used in western blot are anti-p-EGFR (Tyr1068) (#2234, Cell Signaling Technology), anti-total EGFR (#06-847, Millipore), anti-p-AKT (#4060, Cell Signaling Technology) and anti-Lamin B1 (#13435, Cell Signaling Technology). For immunocytochemistry assay, cells were grown on coverslip in 6-well plate and kept in serum free media for 24 hours before stimulation, cells were then either kept in serum free media (control) or stimulated with human or soy EGF for 6 hours. Cells were washed with PBS and fixed with 4% formalin. EGFR was labeled using anti-EGFR antibody (#4267, Cell Signaling Technology) and detected with Alexa Fluor 594 Goat anti-rabbit IgG (#A11012, life technology). The cell nuclei were shown using mounting medium with DAPI (#H-1200, Vectorshield).

Hela cell EGFR [2] = target: T1, Hela cell EGFR; experiment: Immunocytochemistry assay of EGFR internalization in Hela cells; format: cell-based; conditions: Hela cells treated 6 hours; FIG. 5C
Experimental: (§1) Hela cells (obtained from American Tissue Culture Collection) were cultured in Minimum Essential Media (MEM) complemented with 10% Fetal Bovine Serum (FBS), 100 units/ml penicillin, and 100 μg/ml streptomycin. For western blotting assay, cells grown in 6-well plate were kept in serum free MEM media for 24 hours. Cells were then either kept in serum free medium (control) or stimulated with soymilk alone, soy EGF or commercial recombined hEGF for different time period as indicated. Cells were lysed by directly adding 1×SDS sample buffer (50 mM Tris-HCl, pH 6.8, 10% glycerol, 2% SDS and 5% 13-ME) to the cells after washing 3 times with 1×PBS. EGF bio-activity was determined via EGFR phosphorylation and down-stream AKT phosphorylation. Total EGFR was also measured since EGFR is known to undergo internalization when stimulated with EGF. Antibodies used in western blot are anti-p-EGFR (Tyr1068) (#2234, Cell Signaling Technology), anti-total EGFR (#06-847, Millipore), anti-p-AKT (#4060, Cell Signaling Technology) and anti-Lamin B1 (#13435, Cell Signaling Technology). […] EGFR was labeled using anti-EGFR antibody (#4267, Cell Signaling Technology) and detected with Alexa Fluor 594 Goat anti-rabbit IgG (#A11012, life technology). […]

[3] = Stability of rhEGF in soymilk, read out by EGFR bioactivity in Hela cells; format: physicochemical; conditions: in soymilk over 24 hours; bioactivity compared with control rhEGF; FIG. 5B
Experimental: as §1

| Substance | overall EGF bioactivity: internalization, degradation and phosphorylation of EGFR (Hela cell EGFR [1]; listed as EGF protein produced in soybean seed) | overall EGF bioactivity: internalization, degradation and phosphorylation of EGFR (Hela cell EGFR [1]; listed as soybean-produced hEGF) | internalization and degradation of EGFR (decrease in abundance by immunoblot) (Hela cell EGFR [1]; Hela cells, 0.1 μg/ml, FIG. 5B) | EGFR phosphorylation (pEGFR) (Hela cell EGFR [1]; Hela cells, soymilk from ShEGF soybeans at 0.1, 0.05, 0.025 μg/ml, FIG. 5A) | EGFR degradation (Hela cell EGFR [1]; Hela cells, soymilk from seeds producing ShEGF at 0.1, 0.05, 0.025 μg/ml, FIG. 5A) | internalization of the EGFR (immunohistochemical assay) (Hela cell EGFR [2]) | degradation of EGF in soymilk [3] |
| --- | --- | --- | --- | --- | --- | --- | --- |
| ShEGF: human EGF produced in transgenic soybean seeds from a synthetic soybean codon optimized hEGF gene with N-terminal ER signal (SEQ ID NO: 1) (SLSSAENSDSECPLSHDGYCLHDGVCMYIEALDKYACNCVVGYIGERCQYRDLKWWELR; Modified EGF DNA sequence) | bioactive and comparable to commercially available hEGF | indistinguishable from the bioactivity of commercial rhEGF | induces an internalization and degradation of EGFR | induced pEGFR comparable to control rhEGF | induced concentration-dependent EGFR degradation comparable to the effect of rhEGF | induces internalization of the EGFR comparable to that from control rhEGF | – |
| rhEGF: commercial recombinant human EGF | – | – | – | – | – | – | not degraded in soymilk over 24 hours |
